Changes are numbered by the printed parent chain. Numbered stars: 1 amine (or outer) side, 2 acyl side, 3 side chain; on linkers, the order of the positions; unused ones are H or OH. Bridge positions count the residues as written; N and C are the ends. Side chains are listed from the residue outwards. Ends that are not written are not given here. * marks the point of attachment. C20 diacid = O=C(O)CCCCCCCCCCCCCCCCCCC(=O)*; γGlu = O=C(O)[C@H](CCC(=O)[*:2])N[*:1]
T1: human calcitonin receptor (human, UniProt P30988 25-474)
T1 construct: whole, on cells; Used as cell membranes prepared from the transfected BHK cells (Assay VII), not as intact cells; also called hCTR; hCT
T1 sequence (looked up): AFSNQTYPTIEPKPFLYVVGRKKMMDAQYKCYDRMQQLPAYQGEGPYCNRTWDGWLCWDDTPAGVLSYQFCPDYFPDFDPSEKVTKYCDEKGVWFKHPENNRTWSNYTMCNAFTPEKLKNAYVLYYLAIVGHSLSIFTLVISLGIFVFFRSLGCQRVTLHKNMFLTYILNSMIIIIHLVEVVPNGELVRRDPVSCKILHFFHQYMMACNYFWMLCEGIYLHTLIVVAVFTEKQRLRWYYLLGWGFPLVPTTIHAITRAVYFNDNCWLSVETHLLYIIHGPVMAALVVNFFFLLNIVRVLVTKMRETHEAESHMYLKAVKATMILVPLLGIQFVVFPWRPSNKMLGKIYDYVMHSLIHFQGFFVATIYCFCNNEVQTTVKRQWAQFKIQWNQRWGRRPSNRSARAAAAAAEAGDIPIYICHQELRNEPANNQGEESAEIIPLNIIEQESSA

T2: human calcitonin receptor (human, UniProt P30988 25-474)
T2 construct: whole, on cells; Assay used cell membranes of the transfected BHK cells; also called hCTR; hCT
T2 sequence (looked up): T1 sequence (looked up)

B1: N^α1 N^α1-[(4S)-4-carboxy-4-[[(4S)-4-carboxy-4-(19-carboxynonadecanoylamino)butanoyl]amino]butanoyl]-[Glu14,Arg17,Pro21,Pro27]-h-amylin (peptide)
peptide: {C20 diacid-γGlu-γGlu}-KCNTATCATQRLAEFLRHSSPNFGAIPSSTNVGSNTY-NH2
modifications: disulfide 2-7
SMILES: CC[C@H](C)[C@H](NC(=O)[C@H](C)NC(=O)CNC(=O)[C@H](Cc1ccccc1)NC(=O)[C@H](CC(N)=O)NC(=O)[C@@H]1CCCN1C(=O)[C@H](CO)NC(=O)[C@H](CO)NC(=O)[C@H](Cc1c[nH]cn1)NC(=O)[C@H](CCCNC(=N)N)NC(=O)[C@H](CC(C)C)NC(=O)[C@H](Cc1ccccc1)NC(=O)[C@H](CCC(=O)O)NC(=O)[C@H](C)NC(=O)[C@H](CC(C)C)NC(=O)[C@H](CCCNC(=N)N)NC(=O)[C@H](CCC(N)=O)NC(=O)[C@@H](NC(=O)[C@H](C)NC(=O)[C@@H]1CSSC[C@H](NC(=O)[C@H](CCCCN)NC(=O)CC[C@H](NC(=O)CC[C@H](NC(=O)CCCCCCCCCCCCCCCCCCC(=O)O)C(=O)O)C(=O)O)C(=O)N[C@@H](CC(N)=O)C(=O)N[C@@H]([C@@H](C)O)C(=O)N[C@@H](C)C(=O)N[C@@H]([C@@H](C)O)C(=O)N1)[C@@H](C)O)C(=O)N1CCC[C@H]1C(=O)N[C@@H](CO)C(=O)N[C@@H](CO)C(=O)N[C@H](C(=O)N[C@@H](CC(N)=O)C(=O)N[C@H](C(=O)NCC(=O)N[C@@H](CO)C(=O)N[C@@H](CC(N)=O)C(=O)N[C@H](C(=O)N[C@@H](Cc1ccc(O)cc1)C(N)=O)[C@@H](C)O)C(C)C)[C@@H](C)O
notes: also called compound 15
B2: N^α1-[(4S)-4-carboxy-4-(19-carboxynonadecanoylamino)butanoyl]-[Arg17,Pro21,Pro27,His34]-h-amylin (peptide)
peptide: KCNTATCATQRLANFLRHSSPNFGAIPSSTNVGHNTY
modifications: C20 diacid-gGlu on the alpha amino group of the N-terminal Lys1; disulfide Cys2-Cys7; C-terminal amide
notes: also called compound 40
B3: N^α1-[(4S)-4-carboxy-4-(19-carboxynonadecanoylamino)butanoyl]-[Arg17,Pro21,Pro27,Lys35]-h-amylin (peptide)
peptide: B2 peptide with H34S, N35K
modifications: C20 diacid-gGlu on the alpha amino group of the N-terminal Lys1; disulfide Cys2-Cys7; C-terminal amide
notes: also called compound 34
B4: N^α1-[2-[2-[2-[[2-[2-[2-[[(4S)-4-carboxy-4-(19-carboxynonadecanoylamino)butanoyl]amino]ethoxy]ethoxy]acetyl]amino]ethoxy]ethoxy]acetyl]-[Glu14,Arg17,Pro21,Pro27 … (peptide)
peptide: B2 peptide with N14E, H34S
modifications: C20 diacid-gGlu-2xOEG on the alpha amino group of the N-terminal Lys1; disulfide Cys2-Cys7; C-terminal amide
notes: also called compound 19
B5: N^α1-[(4S)-4-carboxy-4-(19-carboxynonadecanoylamino)butanoyl]-[Arg17,Pro21,Pro27,Glu35]-h-amylin (peptide)
peptide: B2 peptide with H34S, N35E
modifications: C20 diacid-gGlu on the alpha amino group of the N-terminal Lys1; disulfide Cys2-Cys7; C-terminal amide
notes: also called compound 23
B6: N^α1-[(4S)-4-carboxy-4-(19-carboxynonadecanoylamino)butanoyl]-[Arg17,Pro21,Pro27,Pro31,Glu35]-h-amylin (peptide)
peptide: {C20 diacid-γGlu}-KCNTATCATQRLANFLRHSSPNFGAIPSSTPVGSETY-NH2
modifications: disulfide 2-7
SMILES: CC[C@H](C)[C@H](NC(=O)[C@H](C)NC(=O)CNC(=O)[C@H](Cc1ccccc1)NC(=O)[C@H](CC(N)=O)NC(=O)[C@@H]1CCCN1C(=O)[C@H](CO)NC(=O)[C@H](CO)NC(=O)[C@H](Cc1c[nH]cn1)NC(=O)[C@H](CCCNC(=N)N)NC(=O)[C@H](CC(C)C)NC(=O)[C@H](Cc1ccccc1)NC(=O)[C@H](CC(N)=O)NC(=O)[C@H](C)NC(=O)[C@H](CC(C)C)NC(=O)[C@H](CCCNC(=N)N)NC(=O)[C@H](CCC(N)=O)NC(=O)[C@@H](NC(=O)[C@H](C)NC(=O)[C@@H]1CSSC[C@H](NC(=O)[C@H](CCCCN)NC(=O)CC[C@H](NC(=O)CCCCCCCCCCCCCCCCCCC(=O)O)C(=O)O)C(=O)N[C@@H](CC(N)=O)C(=O)N[C@@H]([C@@H](C)O)C(=O)N[C@@H](C)C(=O)N[C@@H]([C@@H](C)O)C(=O)N1)[C@@H](C)O)C(=O)N1CCC[C@H]1C(=O)N[C@@H](CO)C(=O)N[C@@H](CO)C(=O)N[C@H](C(=O)N1CCC[C@H]1C(=O)N[C@H](C(=O)NCC(=O)N[C@@H](CO)C(=O)N[C@@H](CCC(=O)O)C(=O)N[C@H](C(=O)N[C@@H](Cc1ccc(O)cc1)C(N)=O)[C@@H](C)O)C(C)C)[C@@H](C)O
notes: also called compound 28
B7: N^α1-[(4S)-4-carboxy-4-(19-carboxynonadecanoylamino)butanoyl]-[Arg17,Pro21,Pro27,Arg34]-h-amylin (peptide)
peptide: B2 peptide with H34R
modifications: C20 diacid-gGlu on the alpha amino group of the N-terminal Lys1; disulfide Cys2-Cys7; C-terminal amide
notes: also called compound 39
B8: N^ε1-[(4S)-4-carboxy-4-(19-carboxynonadecanoylamino)butanoyl]-[His14,Arg17,Pro21,Pro27,Pro31]-h-amylin (peptide)
peptide: K([γGlu-C20 diacid])CNTATCATQRLAHFLRHSSPNFGAIPSSTPVGSNTY-NH2
modifications: disulfide 2-7; N-terminus assumed
SMILES: CC[C@H](C)[C@H](NC(=O)[C@H](C)NC(=O)CNC(=O)[C@H](Cc1ccccc1)NC(=O)[C@H](CC(N)=O)NC(=O)[C@@H]1CCCN1C(=O)[C@H](CO)NC(=O)[C@H](CO)NC(=O)[C@H](Cc1c[nH]cn1)NC(=O)[C@H](CCCNC(=N)N)NC(=O)[C@H](CC(C)C)NC(=O)[C@H](Cc1ccccc1)NC(=O)[C@H](Cc1c[nH]cn1)NC(=O)[C@H](C)NC(=O)[C@H](CC(C)C)NC(=O)[C@H](CCCNC(=N)N)NC(=O)[C@H](CCC(N)=O)NC(=O)[C@@H](NC(=O)[C@H](C)NC(=O)[C@@H]1CSSC[C@H](NC(=O)[C@@H](N)CCCCNC(=O)CC[C@H](NC(=O)CCCCCCCCCCCCCCCCCCC(=O)O)C(=O)O)C(=O)N[C@@H](CC(N)=O)C(=O)N[C@@H]([C@@H](C)O)C(=O)N[C@@H](C)C(=O)N[C@@H]([C@@H](C)O)C(=O)N1)[C@@H](C)O)C(=O)N1CCC[C@H]1C(=O)N[C@@H](CO)C(=O)N[C@@H](CO)C(=O)N[C@H](C(=O)N1CCC[C@H]1C(=O)N[C@H](C(=O)NCC(=O)N[C@@H](CO)C(=O)N[C@@H](CC(N)=O)C(=O)N[C@H](C(=O)N[C@@H](Cc1ccc(O)cc1)C(N)=O)[C@@H](C)O)C(C)C)[C@@H](C)O
notes: Synthetic analogue; also called compound 62
B9: N^ε1-[(4S)-4-carboxy-4-[[(4S)-4-carboxy-4-(19-carboxynonadecanoylamino)butanoyl]amino]butanoyl]-[Asp14,Arg17,Pro21,Pro27,Arg35]-h-amylin (peptide)
peptide: K([γGlu-γGlu-C20 diacid])CNTATCATQRLADFLRHSSPNFGAIPSSTNVGSRTY-NH2
modifications: disulfide 2-7; N-terminus assumed
SMILES: CC[C@H](C)[C@H](NC(=O)[C@H](C)NC(=O)CNC(=O)[C@H](Cc1ccccc1)NC(=O)[C@H](CC(N)=O)NC(=O)[C@@H]1CCCN1C(=O)[C@H](CO)NC(=O)[C@H](CO)NC(=O)[C@H](Cc1c[nH]cn1)NC(=O)[C@H](CCCNC(=N)N)NC(=O)[C@H](CC(C)C)NC(=O)[C@H](Cc1ccccc1)NC(=O)[C@H](CC(=O)O)NC(=O)[C@H](C)NC(=O)[C@H](CC(C)C)NC(=O)[C@H](CCCNC(=N)N)NC(=O)[C@H](CCC(N)=O)NC(=O)[C@@H](NC(=O)[C@H](C)NC(=O)[C@@H]1CSSC[C@H](NC(=O)[C@@H](N)CCCCNC(=O)CC[C@H](NC(=O)CC[C@H](NC(=O)CCCCCCCCCCCCCCCCCCC(=O)O)C(=O)O)C(=O)O)C(=O)N[C@@H](CC(N)=O)C(=O)N[C@@H]([C@@H](C)O)C(=O)N[C@@H](C)C(=O)N[C@@H]([C@@H](C)O)C(=O)N1)[C@@H](C)O)C(=O)N1CCC[C@H]1C(=O)N[C@@H](CO)C(=O)N[C@@H](CO)C(=O)N[C@H](C(=O)N[C@@H](CC(N)=O)C(=O)N[C@H](C(=O)NCC(=O)N[C@@H](CO)C(=O)N[C@@H](CCCNC(=N)N)C(=O)N[C@H](C(=O)N[C@@H](Cc1ccc(O)cc1)C(N)=O)[C@@H](C)O)C(C)C)[C@@H](C)O
notes: Synthetic analogue of human amylin; also called compound 52

The binders below were run against T1, human calcitonin receptor (assay: SPA competition against 125I-calcitonin, membranes with human calcitonin receptor (Assay VII)).
Method: Membranes were prepared in the following way; the cells were rinsed with PBS and incubated with Versene for approximately 5 min before harvesting. The cells were flushed with PBS and the cell-suspension was centrifuged for 5 min at 1000 rpm. Cells were homogenized (Ultrathurrax) in a buffer containing 20 mM Na-HEPES and 10 mM EDTA (pH 7.4) and centrifuged at 20.000 rpm for 15 min. The resulting pellet was resuspended, homogenized and centrifuged (20.000 rpm, 15 min) in a buffer containing 20 mM Na-HEPES and 0.1 mM EDTA (pH 7.4, buffer 2). The resulting pellet was resuspended in buffer 2 and protein concentration was measured (BCA protein Assay, Pierce). The homogenate was kept cold during the whole procedure. The membranes were kept at −80° C. until use. Assay was performed in a 384 well Optiplate (PerkinElmer) in a total volume of 40 ul. Membranes were mixed with SPA beads. Final concentration of membranes 35 ng/μL final and Final concentration of SPA beads was 0.05 mg/well. Test-compounds were dissolved in DMSO and further diluted in assay buffer (50 mM Hepes, pH 7.4, 1 mM CaCl2, 5 mM MgCl₂, 0.1% OA and 0.02% Tween20). […] The final mixture was incubated for 120 min with shaking at 400 rpm at 25° C. prior to centrifugation (1500 rpm, 10 min). Samples were analyzed on TopCounter™ (Packard). The […] was calculated using (one site binding competition analysis) GraphPad Prism5 as a measure of receptor affinity.

IC50 [nM] | Binder
15.5 | B1
17.1 | B2
73.4 | B3
20.4 | B4
21.8 | B5
12.5 | B6
19.3 | B7

What follows are binders tested against T2, human calcitonin receptor (assay: SPA radioligand competition (125I-calcitonin), membranes of BHK cells with human calcitonin receptor).
Method in brief: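 BHK hCTR membranes 35 ng/μL + SPA beads 0.05 mg/well; buffer 50 mM Hepes pH 7.4, 1 mM CaCl2, 5 mM MgCl₂, 0.1% OA, 0.02% Tween20. 120 min, 25° C., shaking. Scintillation count; IC50 by one-site binding competition.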

IC50 [nM] | Binder
6.17 | B8
56.9 | B9
